# Reference: patent publication US20220195015A1 (published 2022)
# Tests used:
# [1] = target: SARS-CoV-2 spike protein receptor binding domain (RBD) (SARS-CoV-2, UniProt P0DTC2 319-539); assay: ELISA, RBD coated on plate, mAb titrated
# [2] = target: SARS-CoV-2 spike receptor binding domain (RBD), S protein residues 319-539 (SARS-CoV-2, UniProt P0DTC2 319-539); assay: ELISA on coated RBD
Binder,EC50 [1],EC50 [2]
"C559 (antibody, V domains shown) VH: EVQLVQSGAEVKKPGESLKISCKVSGYTFTNYWIGWVRQMPGKGLEWMGIIFPGDSDTRYSPSFQGQVTISADRSITTAYLQWRSLKASDTAMYYCARVPSSSDYGDYGGFEYWGQGTLVTVSS VL: DIQMTQSPSSLSASVGDRVTITCRASQTITIYLNWYQQKPGKAPKLLIYAASSLQSGVPSRFSGSGSGTDFTLTISSLQPEDFATYYCQQSYSTPCSFGQGTKLEIK",2.89 ng/mL,–
"C560 (antibody, V domains shown) VH: EVQLVESGGGLVQPGRSLRLSCAASGFTFDDYAMHWVRQAPGKGLEWVSGVSWNSGTIGYADSVKGRFTISRDNAKNSLYLQMNSLRAEDTALYYCAKIADIVRAYDFWSGQHFDAFDIWGQGTMVTVSS VL: not shown",1.6 ng/mL,–
"C561 (antibody, V domains shown) VH: EVQLVESGGGLVQPGRSLRLSCAASGFTFDDYAIHWVRQAPGKGLEWVSGVSWNSGTIGYADSVKGRFFISRDNAKNSLYLQMNSLRAEDTAWYYCAKIADLVGAYDFRSGQHFAAFDVWGQGTMVTVSS VL: not shown",1.53 ng/mL,–
"C073 (antibody, V domains shown) VH: QLQLQESGPGLVKPSETLSLTCTVSGASIPSSTSYWGWIRQPPGKGLEWIGSIYYTGSTYYNPSLKSRVTISVDTSKNHFSLILSSVTAADTAVYYCARRSITLAGRDCLDFWGQGTLVTVSS VL: DIQLTQSPSSLSASVGDRLTITCRASQSITTSLNWYQQKPGKAPKLLIYAASSLQSGVPSRFSGSGSGTDFTLAISSLQPEDFATYYCQQSYIPLLTFGGGTKVDIK",–,20.6 ng/mL
"C077 (antibody, V domains shown) VH: QVQLVQSGAEVKKPGASVKVSCKASGYTFTSYAMHWVRQAPGQRLEWMGWINTDNGNTKYSQKFQGRVTITRDTSASTAYMELSSLRSEDTAVYYCAREGALTNWFDPWGQGTLVTVSS VL: SYELTQPPSVSVAPGQTARIPCGGNNIGSKSVHWYQQKPGQAPVLVVYDDSDRPSGIPERFSGSNSGNTATLTISRVEAGDEADYYCQVWDSSSDLHVVFGGGTKLTVL",–,45.9 ng/mL
"C132 (antibody, V domains shown) VH: QVQLQESGPGLVKPSGTLSLTCAVSGGSISSNNWWSCVRQPPGKGLEWIGEIYHSGSTNYNPSLKSRVTISVDKSKNQFSLKLSSVTAADTAVYYCARGGDTAMGPEYFDYWGQGTLVTVSS VL: QSALTQPASVSGSPGQSITISCTGTSSDVGGYNYVSWYQQHPGKAPKLMIYDVSNRPSGVSNRFSGSKSGNTASLTISGLQAEDEADYYCSSYTSSSTLLFGGGTKLTVL",–,3.56 ng/mL
"C512 (antibody, V domains shown) VH: QVQLQESGPGLVKPSGTLSLTCAVSAGSISSNNWWSWVRQPPGKGLEWIGEVYHNGNINYNPSLKSRVTLSVDKSKNQFSLKLSSVTAADTAVYYCAKGGDRAMGPEYFDSWGQGTLVTVSS VL: QSALTQPASVSGSPGQSITISCTGTSSDVGANNYVSWYQQHPGKAPKLMIYDVNERPSGVSNRFSGSKSGNTASLTISGLQTEDEADYYCSSFASSSTLLFGGGTKLTVL",–,1.68 ng/mL
"C533 (antibody, V domains shown) VH: EVQLVESGGSLVKPGGSLRLSCVASGLTFNHAWMSWVRQAPGKGLEWVGRIKSKIDGGTTDYAAPVKGRFTISRDDSKSTQYLQMNSLKTEDTAVYYCTTDCFWRLGGTTCYEHDAFDVWGQGTMVTVSS VL: DIQMTQSPSSLSASVGDRVTITCRASQAIATFLNWYQQKPGKAPKLLIYAASSLQSGVPSRFSGSGSGTDFTLTISNLQPEDFATYYCQQSYNSLHFGGGTKVEIK",1.61 ng/mL,–
"C534 (antibody, V domains shown) VH: QVQLVQSGAEVKKPGSSVRVSCKASGGTFSRNVISWVRQAPGQGLEWMGGIIPMFATANYAQKFQGRVTITADESSSTAYMELSSLRSEDTAVYYCAREDFILVSAPIRENSYYYYGMDVWGQGTTVTVSS VL: EIVLTQSPGTLSLSPGERATLSCRASQSVSSNYLAWYQQKPGQAPRLLIYDASSRATGIPDRFSGSGSGTDFTLTISRLEPEDFAVYYCQQYGGSPRTFGQGTKVEIK",4.85 ng/mL,–
"C535 (antibody, V domains shown) VH: EVQLVESGGALVQPGRSLRLSCAASGFTFDDYAMHWVRQAPGKGLEWVSSISWNGVSIGYADSVRGRFTISRDNAKNSLYLQMNSLKIGDTAFYYCARGLDGSSSASPDSWGQGTLVTVSS VL: DIQMTQSPSSVSASVGDRVTITCRASQGIGSWLAWYQQKPGKAPKLLIYLASSLQSGVPSRFSGSGSGTYFTLTISGLQPEDFATYYCQQGNSFPLTFGGGTKVEIK",2.46 ng/mL,–
"C536 (antibody, V domains shown) VH: QVQLVESGGGLVKPGRSLRLSCTVSGFTFGAYAMSWFRQAPGKGLEWVGFIRSKTYGGTTEYAASLKGRFTISRDDSKSIAFLQMNSLKTEDTAVYFCSRGGYYDGSPYYWNRPDAFDIWGLGTMVTVS VL: not shown",1.88 ng/mL,–
"C537 (antibody, V domains shown) VH: QLQLQESGPGLVKPSETLSLTCTVSGGAISSRNYHWGWIRQPPGKGLEWIGSIYYSGSTYYSPSLKSRVTISVDTSKNQFSLRLSSVTAADTAVYYCARLETSGWYTEDVFDIWGQGTMVTVSS VL: DIQMTQSPSSLSASVGDRVTITCRASQSISSYLNWYQQKPGKAPKLLIYAASSLQSGVPSRFSGSGSGTDFTLTISSLLPEDFATYYCQRSYSAMYTFGQGTKLEIK",41.9 ng/mL,–
"C538 (antibody, V domains shown) VH: QLQLQESGPGLVKPSETLSLTCTVSGGSISSSSYYWAWIRQPPGKGLEWIGNIYYSGITYYSPSLKSRVTISVDTSKNQFSLKLRSVTAADTAVYYCARQHRYGSGSSELLWGQGTLVTVSS VL: QSALTQPPSASGSPGQSVTISCTGTSSDVGSYNYVSWYQQHPGKAPKLMIYEVTKRPSGVPDRFSGSKSGNTASLTVSGLQADDEADYYCSSYAGSSNLIFGGGTKLTVL",3.95 ng/mL,–
"C539 (antibody, V domains shown) VH: EVQLVESGGGLVQPGRSLRLSCAASGFTFDDYALHWVRQAPGKGLEWVSGISWNGDSIGYADSVKGRFTISRDNAKNSLSLQMNSLTAEDTALYYCAKGVEYSSSSNCDYWGQGTLVTVSS VL: DIQMTQSPSSVSASVGDRVTITCRASQDISSWLAWYQQKPGKAPKLLISLASGLQSGVPSRFSGSGSETDFTLTISSLQPEDFATYYCQQTNSFPLTFGGGTKVEI",1.3 ng/mL,–
"C540 (antibody, V domains shown) VH: EVQLVESGGGLVQPGGSLRLSCAASGFTFRNYDMHWVRQVAGKGLEWVSAIGTSGDTYYPDSVKGRFTISRENAKNSVYLQMNNLRAGDTAVYFCVRDREISGWTGWYFDLWGRGTLVTVSS VL: DIQMTQSPSSLSASVGDRVTITCRASQTIHNYLNWYQQIPGKAPRLLIYATNTLQSGVPSRFSGSGSGTDFTLTITGLQPEDFATYYCQQSYSTPPITFGQGTRLEIK",2.9 ng/mL,–
"C542 (antibody, V domains shown) VH: EVQLVESGGGLVQPGGSLRLSCAASGLTVTSNYMSWVRQAPGRGLEWVSLIYPGGTTYYADSVKGRFTVSRDNSKNTLYLQMDSLRAEDTGVYYCARETLGRGGDCWGQGTLVTVSS VL: DIQMTQSPSSLSASVGDRVTITCQASQDISNFLNWYQQKPGKAPKLLIYDASNLETGVPSRFSGSRSGTDFTFTISSLQPDDIATYYCQQYDNLPRSFGQGTKLEIK",1.07 ng/mL,–
"C543 (antibody, V domains shown) VH: QVQLVESGGGVVQPGRSLRLSCTASGFTFSTAGMHWVRQAPGKGLEWVAVISYDGSNKDYADSVKGRFTISRDNSKSTLYLQMNSLRPEDTAVYYCAKDTPGGDDIMTGWGLYGMDVWGQGTTVTVSS VL: DIQMTQSPSSLSASVGDRVTITCRASQSISSYLNWYHQKPGKAPKLLIYAAISLQSGVPSRFSGSGFGTDFTLTISSLQPEDFAIYYCQQSYSTPWTFGQGTKVEIK",1.28 ng/mL,–
"C547 (antibody, V domains shown) VH: QVQLVESGGGVVQPGRSLRLSCAASGFTFSSYGMHWVRQAPGKGLEWVAVISYDGSNKYYADSVKGRFTISRDNSKNTLYLQMNSLRAEDTAVYYCAKDTPGGDDILTGWGLYGMDVWGQGTTVTVSS VL: not shown",1.78 ng/mL,–
"C544 (antibody, V domains shown) VH: QVQLVQSGAEVKKPGASVKVSCKASGYTFSSHDINWVRQATGQGLEWVGWMNPNSGNTGSAQSFQGRVTLTRNASISTAYLELSSLRSEDTAVYFCARGFSLTWYFDLWGRGTLVTVSS VL: SYELTQPPSVSAAPGKTARITCGGNNIGGKNVHWYQQKPGQAPVLVVFDDSDRPSGIPERFSGSNSGNTATLTISRVEAGDEADYYCQLWDSTSDHPDVVFGGGTQLTVL",2.34 ng/mL,–
"C545 (antibody, V domains shown) VH: EVQLLESGGGLVKPGGSLRLSCAASGFTFSDYSMTWVRQAPGKGLEWVSFISSSSTYIYYADSVKGRFTISRDNAKSSLYLQMNRLRAEDTAVYYCTRVQVGARGWADYWGQGTLVTVSS VL: NFMLTQPLSVSESPGKTVTISCTRSSGSIASNYVQWYQQRPGGAPTTVIYEDTQRPSGVPDRFSGSIDSSSNSASLTISGLKTEDEADYYCQSCDTINWVFGGGTKLTVV",3.68 ng/mL,–
"C546 (antibody, V domains shown) VH: EVQLLESGGGLVHPGGSLRLSCAASGFTFSTYAMHWVRQAPGKGLEWVSAISGSGTGTFYADSVKGRFSISRDNSKNTLYLQMNSLRAEDTAVYYCATERIAVSDTRMYNWFDPWGQGTLVTVSS VL: DIQMTQSPSSLSASVGDRVTLTCRASQGISTYLNWYQQKPGKAPNLLIYAASSLQSGVPSRFSGSGSGTDFTLTISSLQPEDFATYYCQQSYSAPPWTFGQGTKVEIK",3.57 ng/mL,–
"C548 (antibody, V domains shown) VH: QVQLVQSGAEVKKPGSSVKVSCKASGGTFSSYAISWVRQAPGQGLEWMGGIIPIFGTANYAQKFQGRVTITADESTSTAYMELSSLRSEDTAVYYCARREAYGPRDYYYYYGMDVWGQGTTVTVSS VL: QSALTQPPSASASLGASVTLTCTLSSGYSNYKVDWYQQRPGKGPRFVMRVGTGGIVGSKGDGIPDRFSVLGSGLNRYLTIKNIQEEDESDYHCGADQGSGSNFVGVFGGGTKLTVL",1.72 ng/mL,–
"C549 (antibody, V domains shown) VH: QVQLVQSGAEVKKPGSSVKVSCKASGGTFSTSAISWVRQAPGQGLEWMGGIIPFFGTPNYAQKFQGRVTIIADESTTTAYMELSGLRFEDSAVYYCARREPYGPRDYYYFFGMDVWGPGTTVTVSS VL: QSALTQPPFASASLGASVTLTCTLSSDYSYYKVDWYQQRPGKGPRFVIRVGPGGIVGSKGDGFPDRFSVLGSGLNRSLTINNIQEEDEGDYHCGADEGSGGTFVGVFGGGTKLTV",1.76 ng/mL,–
